Molecular target: APOBEC3G (human), Q9HC16
Experiment: AUC
Conditions: remark: other sources report otherwise

B1: APOBEC3G, Q9HC16 1-384 (enzyme)
chain: MKPHFRNTVERMYRDTFSYNFYNRPILSRRNTVWLCYEVKTKGPSRPPLDAKIFRGQVYSELKYHPEMRFFHWFSKWRKLHRDQEYEVTWYISWSPCTKCTRDMATFLAEDPKVTLTIFVARLYYFWDPDYQEALRSLCQKRDGPRATMKIMNYDEFQHCWSKFVYSQRELFEPWNNLPKYYILLHIMLGEILRHSMDPPTFTFNFNNEPWVRGRHETYLCYEVERMHNDTWVLLNQRRGFLCNQAPHKHGFLEGRHAELCFLDVIPFWKLDLDQDYRVTCFTSWSPCFSCAQEMAKFISKNKHVSLCIFTARIYDDQGRCQEGLRTLAEAGAKISIMTYSEFKHCWDTFVDHQGCPFQPWDGLDEHSQDLSGRLRAILQNQEN
  stoichiometry N: 4

— publication PMC2783380
